Test results as given in patent publication US20040192610A1.

Target: rat neuronal nicotinic acetylcholine receptor, α7 subtype (rat) (UniProt Q05941)
Experiment: cell-based or functional assay

Sequence of UniProt Q05941 (Q05941 23-502): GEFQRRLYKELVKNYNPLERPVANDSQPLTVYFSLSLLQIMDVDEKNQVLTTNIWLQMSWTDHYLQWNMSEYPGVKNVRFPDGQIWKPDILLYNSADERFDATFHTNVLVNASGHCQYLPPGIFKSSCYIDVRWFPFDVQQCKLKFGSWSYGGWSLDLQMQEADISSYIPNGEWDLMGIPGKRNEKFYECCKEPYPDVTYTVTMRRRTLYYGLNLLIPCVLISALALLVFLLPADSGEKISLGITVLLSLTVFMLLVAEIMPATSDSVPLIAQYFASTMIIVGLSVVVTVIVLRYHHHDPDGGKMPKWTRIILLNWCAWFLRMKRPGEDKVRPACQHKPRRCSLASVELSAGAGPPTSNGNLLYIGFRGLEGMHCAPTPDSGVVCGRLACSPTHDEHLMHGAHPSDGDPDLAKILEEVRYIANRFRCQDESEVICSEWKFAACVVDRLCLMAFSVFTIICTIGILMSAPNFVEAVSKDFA

Substance: α-conotoxin peptide PnIA
- IC50 of antagonistic activity (oocyte electrophysiology): 229 nmol
